The assay has as its target YFP-PP1γ (UniProt P36873). Nature of the assay: live-cell FRET at kinetochores (FRET/CFP intensity ratio). Particulars: HeLa cells, MG132 for 1 hr before imaging, 37°C; Cells = 6, Area KT = 42 (4A) and 50 (WT); parent: est. 1.6; read off a plot.
UniProt P36873, sequence (P36873 whole entry): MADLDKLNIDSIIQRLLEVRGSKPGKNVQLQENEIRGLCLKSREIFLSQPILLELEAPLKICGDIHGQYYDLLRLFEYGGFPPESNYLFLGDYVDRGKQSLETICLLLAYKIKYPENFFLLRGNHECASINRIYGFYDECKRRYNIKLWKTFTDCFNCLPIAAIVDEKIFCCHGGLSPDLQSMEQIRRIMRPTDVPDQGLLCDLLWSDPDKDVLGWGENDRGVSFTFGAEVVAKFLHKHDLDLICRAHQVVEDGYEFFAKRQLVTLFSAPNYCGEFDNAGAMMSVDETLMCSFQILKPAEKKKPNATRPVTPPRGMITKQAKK

In the case of “Astrin-CFP (WT) (from UniProt Q96R06) 4A (RVMF motif changed to AAAA)”, the response is 1.2.

The values above are taken from PMC6930079.
